In the supplement of paper PMC12042874:
± gives the uncertainty stated by the source.

Assay: amyloid nucleation score (Sup35N fusion, yeast selection) (log enrichment); library NNK2; higher = more nucleation; inactive = no reads after selection
Procedure, shortened: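 The nucleation score is the DiMSum log enrichment of output over input reads, centred on the mode score of non-aggregating sequences. Only sequences with 100 or more input reads were scored, using Illumina sequencing of input and output plasmid inserts. Psi-negative yeast expressing Sup35N fused to peptides of 20 random codons were induced 24 hours with 100 μM copper sulfate and grown 7 days at 30°C on medium lacking adenine and uracil.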

| Substance | amyloid nucleation score |
| --- | --- |
| SYWIADTNRSGNRRLSCGRC | 0.266 ± 1 |
| SYYEFVVNLGKPAISVDSIT | 0.349 ± 0.51 |
| TAAPSEVMPIMALRPPKESS | -0.541 ± 0.79 |
| TAAVILLIVNRDANA | 1.94 ± 0.14 |
| TACSQVVGVIHIIVGRGRSR | 7.292 ± 0.045 |
| TADLDIDGPVS | 4.64 ± 0.094 |
| TAGFRILRRHFSIGVGSRTW | inactive |
| TAKDTPCAVRIIFEFLDGLV | 7.279 ± 0.056 |
| TAKLFDISTCKCPD | -0.105 ± 0.79 |
| TALDAGHA | -1.19 ± 0.45 |
| TASHTWSVVCFTWYRCLVND | 4.98 ± 0.051 |
| TASMGVVVSDENWE | 0.633 ± 0.14 |
| TATGTIECMVYPLTFSSLSP | -0.1 ± 1 |
| TCGLFTA | 1.2 ± 0.44 |
| TCICEVHTPTSSMISPSMSF | -1.51 ± 0.75 |
| TCNSGRYSRAACAWWN | -0.114 ± 0.45 |
| TCPCRYLDVNIDAMFVTMDI | 7.789 ± 0.056 |
| TCTVASLYLGAFDWNYVEAV | 3.08 ± 0.12 |
| TCYMVWSLYC | 3.93 ± 0.067 |
| TDCTLSGKRLRYLNGDCFKK | -1.13 ± 0.55 |
| TDFCSHKTWLSAVGISV | 0.037 ± 0.23 |
| TDGVLFQLVDSKFV | -1.25 ± 0.64 |
| TDKCVTTFNCYNLHRR | 1.62 ± 0.15 |
| TDLYTCDVLRVLVCAH | -0.011 ± 0.45 |
| TDMWPVYANRVFYNMSWSRP | inactive |

| Substance | amyloid nucleation score |
| --- | --- |
| TDNNNVYYVYSLQVIPTVSD | -0.496 ± 0.32 |
| TDSYPVLDLHPGSYRVH | 0.397 ± 0.39 |
| TEGHVNSQIRWNLVY | -0.348 ± 0.36 |
| TELKEGLYAGIHFNTGTG | -0.457 ± 0.64 |
| TESIFCSYSWVCVGVMSNYD | 5.1 ± 0.071 |
| TETNRDWRLGDDW | 5.293 ± 0.047 |
| TFAQYPSLGNSFSGWGYCVK | -2.02 ± 0.75 |
| TFCEWMLWNTLCQVLSVPPY | 6.423 ± 0.045 |
| TFCICPFNAEV | 7.35 ± 0.029 |
| TFHGNYFVDTSA | inactive |
| TFLQPTLEVSLL | -0.612 ± 0.48 |
| TFMFDHRIGISDGLSTIMVI | 0.923 ± 0.81 |
| TFMRKCIFMFLFVIFSFYSS | 2.03 ± 0.11 |
| TFNISLAWCEFFSHIFLLN | inactive |
| TFSQYTWEFIYN | 3.68 ± 0.11 |
| TFYCTSCFLLMSVMSFHRLL | 1.89 ± 0.13 |
| TGAFPDCLALMYKGAEEVER | 0.011 ± 0.28 |
| TGCRVGHCIYVYVSEVSSNP | 0.903 ± 0.34 |
| TGCVDVAEMVNP | 0.138 ± 0.48 |
| TGFGTSMFSKLYVNVNYL | 5.37 ± 0.072 |
| TGGGATLRRILRHLSVGSDR | -0.005 ± 0.79 |
| TGLDFGNLLLARCMSRV | 0.43 ± 0.32 |
| TGLKIG | 0.038 ± 0.29 |
| TGLTLVV | -0.094 ± 1 |
| TGRISVSG | 0.14 ± 1 |

| Substance | amyloid nucleation score |
| --- | --- |
| TGSRNIWTRVVFLYCFRVHG | -0.939 ± 0.54 |
| TGSWNGCVKWASRLKRAGGR | 0.643 ± 0.64 |
| TGTFSAKLVDTPEGYYLLSV | -1.01 ± 0.41 |
| TGVFHSVCNIWCFHSKDPSN | 7.54 ± 0.076 |
| THCFCGTNGWVMWGSPEGLA | 0.179 ± 0.55 |
| THMSEDGFVL | 0.072 ± 0.34 |
| TIAPGRRYENVNKGCERRFI | -1.76 ± 0.76 |
| TICFIFHSFRLFRIDAY | 4.54 ± 0.098 |
| TIFIGVRVPS | -0.224 ± 0.63 |
| TIFWLTISCQRYRD | 1.46 ± 0.13 |
| TIGEVYGYLRSWIYWGSEST | 0.154 ± 0.46 |
| TIGTVMNSLSHFLRPAR | 1.15 ± 0.21 |
| TIHRVVWCLL | -0.645 ± 0.56 |
| TIILMGYLFWICRQSVR | -0.449 ± 0.38 |
| TIKRLLKDFPLIFLRISGST | inactive |
| TILGSLHFNFVKCHSKCSYF | 7.238 ± 0.061 |
| TILKDSTPAVYNVRMRFKAW | inactive |
| TIQAYICPLVSKAYWWGVEY | 6.427 ± 0.032 |
| TIYMMSRDFRF | 4.748 ± 0.028 |
| TKEIVEGINTQLYRWTLFG | -0.429 ± 0.25 |
| TKLEYNTE | 0.118 ± 0.77 |
| TLATTGTHCVYYKNSWCKFR | -0.498 ± 0.63 |
| TLAWRSGTRRELKEECNGGW | 1.19 ± 0.59 |
| TLDNIRFKLQTAGTAIMWRR | 0.311 ± 0.24 |
| TLEKSFPLEFVV | 0.204 ± 0.65 |

| Substance | amyloid nucleation score |
| --- | --- |
| TLFNMLDYSVVWYLFTSIHR | -1.44 ± 1.1 |
| TLGLHGED | 0.23 ± 0.31 |
| TLGREVSKVQNATSFLPMQA | 0.926 ± 0.29 |
| TLHLWGSK | 1.38 ± 0.42 |
| TLHNYCYPMIRSCGQSPGRF | 0.208 ± 1.1 |
| TLHWK | -0.667 ± 0.33 |
| TLIDYYFYYCYGKSVDKAGL | -0.749 ± 0.45 |
| TLLSNTSKLFLLHNYHQWVM | 0.062 ± 0.74 |
| TLMGNVRTCPPAGRRATTAS | 0.966 ± 0.22 |
| TLWHARTVKRDKWSSYGVGR | 1.83 ± 0.12 |
| TLWLMPDLRTRLEAGCRYKT | -0.08 ± 0.44 |
| TLYSVSLGKEFYYG | 0.192 ± 0.46 |
| TMFASHFCWYALYYVCILNF | 0.066 ± 1 |
| TMHCSSLPQTSLVGTNHNAD | -0.327 ± 0.28 |
| TMIKSQMLYFSGLATRLRLG | 0.098 ± 0.26 |
| TMIRYVERMVDNLFRNCRLP | 0.827 ± 0.2 |
| TMLSESTVQTKRVRMQESRR | 7.03 ± 0.071 |
| TMSHEFV | 0.085 ± 0.6 |
| TMSPCINASIFWDYA | 3.08 ± 0.05 |
| TNAACSPLTCGHQMAVSPNY | 0.358 ± 0.32 |
| TNADGRTGT | -0.385 ± 0.39 |
| TNCGRVINRSSVVHAFNYGV | inactive |
| TNDLIRKFTLYMNQCDFNWS | -0.633 ± 1.1 |
| TNFYWY | 3.23 ± 0.065 |
| TNLCVPFVYEHFGCYGYN | 3.83 ± 0.12 |

| Substance | amyloid nucleation score |
| --- | --- |
| TNRGSQNGLMFFDRSWKGYG | -0.467 ± 0.5 |
| TNSSRISLNLGVLRGAQKDS | -1.08 ± 0.45 |
| TNTSFQRCGLWLTMGYGRYH | -0.286 ± 0.3 |
| TNVINRCLSPCFGRSLFNIV | -0.805 ± 1.1 |
| TPAWQLYGHTVLAGVQKNMV | -0.077 ± 0.37 |
| TPMFHILLYFLNWCYCILVA | 0.165 ± 1 |
| TPSDLVDINMDHAFCELCRR | 0.413 ± 0.45 |
| TPSKKDGECWNFYRTMWFTG | -0.492 ± 0.79 |
| TQDDAHQVRGQCVPSENIGP | 1.96 ± 0.21 |
| TRADDL | 0.205 ± 0.4 |
| TRAWITWAKVWRSQMNRGKA | 0.699 ± 0.54 |
| TRDAVGVLTLSSTLTTCSTC | -0.26 ± 0.35 |
| TRDCHYMVGRLMIEWFQSVW | -0.063 ± 0.21 |
| TRDILGRGVDQFFIVSYRFN | -1.11 ± 0.45 |
| TRDNST | 0.32 ± 0.53 |
| TRFILYLGCDE | -1.25 ± 0.54 |
| TRNGWGSTGSLQRSQVSVWS | 0.25 ± 0.42 |
| TRPCMFFRIELISLSTVLAR | 0.552 ± 0.46 |
| TRSDMLVLLCIIMCFSYSYP | 6.31 ± 0.09 |
| TRSPEYNCRSVEGTVSDKDK | -0.832 ± 0.49 |
| TRSTNVQLDPYFYLW | -1.16 ± 0.39 |
| TRWCYSDFPMVKLFLLKFIT | 0.416 ± 0.8 |
| TRYIADRAVVSNRC | 0.81 ± 0.31 |
| TRYSILVDRRNRIFVVADPD | 0.615 ± 0.32 |
| TSAENRLMMAEARKYCVRSF | 3.66 ± 0.087 |

| Substance | amyloid nucleation score |
| --- | --- |
| TSCHRLWLLFMCIAGG | -0.199 ± 0.79 |
| TSDLNNSSSMKAYSNEHSGC | 0.411 ± 0.4 |
| TSFGCWSQAYKMMRFDLCSV | -0.145 ± 0.21 |
| TSFHYCCSR | 6.146 ± 0.03 |
| TSFLPELRGLYGRAIVARNY | -1.39 ± 1.1 |
| TSGMNDITR | -0.093 ± 0.23 |
| TSGQNESDA | 0.578 ± 0.81 |
| TSIILGFFLMTTLQN | inactive |
| TSLGNL | -0.825 ± 1.1 |
| TSLSVVSGFLAFSGSPHSGT | 4.39 ± 0.05 |
| TSLVLCYLTIELSVLISSGN | 0.221 ± 0.36 |
| TSPSYVTSCYRFVKEIDHWK | -1.29 ± 1.1 |
| TSRWDWIINSVRHIYWFSCF | 4.26 ± 0.12 |
| TSVCM | 3.89 ± 0.1 |
| TSWSLVVVKVDIWPNQSVWV | -0.391 ± 0.55 |
| TSYKVVLVTYRT | 5.81 ± 0.074 |
| TSYRVRGVGSSELCGSLKLR | 0.627 ± 0.36 |
| TTDGNQAISVKLMTYLTRPL | -0.187 ± 0.41 |
| TTEYG | 0.239 ± 0.5 |
| TTFIRLVIITPWV | 2.75 ± 0.15 |
| TTIFYKPLQCLLGLFFYP | -0.623 ± 1 |
| TTMWYTS | -0.837 ± 1.1 |
| TTQDATLIVNSCNTFTLQVY | -0.389 ± 0.29 |
| TTTESMRIWPTNRFKRCTLQ | 0.582 ± 0.2 |
| TVAKSLVYLSVCQVAA | 0.035 ± 1 |

| Substance | amyloid nucleation score |
| --- | --- |
| TVAMSGASQYDEYVSESMMT | 0.061 ± 0.27 |
| TVFNR | 0.236 ± 0.3 |
| TVFPMREIEVLFDSIWYGFN | 1.71 ± 0.096 |
| TVGGNQTLSKLFWSFQGMFW | inactive |
| TVKNRA | 0.694 ± 0.51 |
| TVLFKGLRYRRNFKFGTQTT | -0.056 ± 0.76 |
| TVMLFIVHLPCDRTFYL | 0.682 ± 0.45 |
| TVNFYKRWSDCQLMSFIVRV | inactive |
| TVSLTWEKYNEQIHA | 0.399 ± 0.74 |
| TVYEMGASMLVKILHWKVLN | -0.801 ± 0.38 |
| TVYIYSLVSRNKEVMFFTD | inactive |
| TVYSGILKSY | -0.574 ± 1 |
| TWDVNVLHVYLSMSSTTLHF | -0.46 ± 0.45 |
| TWKTSLS | inactive |
| TWRLACRFLL | -0.12 ± 0.56 |
| TWSHTPNALWMDALRSTLQA | 1.05 ± 0.38 |
| TYHIYFVCLKSLWRFGEDCL | 4.37 ± 0.055 |
| TYHYLMYLLVRRNMGDVNGA | 3.49 ± 0.097 |
| TYKEYCGE | -0.693 ± 0.78 |
| TYLMSFICNNLRVDIANINR | 0.141 ± 0.3 |
| TYLNLLSNAMNVAWFS | 2.83 ± 0.19 |
| TYLVQWMCCRWMPMHFRIMT | -0.369 ± 0.79 |
